Positions count from the first letter of the chain named.
Tests used:
[1] = test system: human B2M locus; experiment: Editing (indel rate by NGS) at the B2M locus by catalytically-dead CasX variants (Example 8); type: cell-based; conditions: B2M-targeting spacer 7.37, HEK293T, six days after transfection
[2] = test system: endogenous B2M (beta-2-microglobulin) gene; experiment: B2M protein expression by HLA antibody staining and flow cytometry (Example 1); type: cell-based, human; conditions: HEK293T, seven days post-transfection
Source text: dXR variant plasmids encoding constructs having the configuration of U6-gRNA+Ef1α-NLS-GGS-dCasX491-GGS-KRAB variant-NLS (dCasX491 refers to catalytically-dead CasX 491), were transiently transfected into HEK293T cells in an arrayed 96-well format. These constructs also contained a 2× FLAG sequence, as well as sequences encoding either a gRNA scaffold 174 (SEQ ID NO: 2238) having a spacer (spacer 7.37) targeting the endogenous B2M (beta-2-microglobulin) gene or a non-targeting control (spacer 0.0), which were all cloned upstream of a P2A-puromycin element on the plasmid. Four different effector domains were tested in addition to the “naked” dCasX491 (KRAB variant domains listed in Table 9; spacer sequences listed in Table 10; sequences of additional elements listed in Table 11). The corresponding protein sequences of the dXR molecule are listed in Table 13, and the generic configuration of the dXR molecule is illustrated in FIG. 38. Positive and negative controls based on a catalytically-dead Cas9 nuclease (with or without a ZNF10 repressor) with a B2M-targeting gRNA (spacer 7.14) or a non-targeting gRNA control (spacer 0.0) were included, along with a catalytically-active CasX 491 and gRNA with the same 7.37 and 0.0 spacers. Two days after transfection, total RNA was harvested, and reverse transcribed to generate a cDNA library. Changes in gene expression were calculated by performing qPCR on the targeted gene and a housekeeping gene as reference. Relative gene expression represents the amount of target-specific RNA relative to a reference gene normalized to the non-targeting guide condition for two biological replicates. In addition to the wells used for RNA measurements, a separate set of wells was harvested seven days post-transfection and analyzed for B2M protein expression. Expression of B2M protein was determined by using an antibody that detects the B2M-dependent HLA protein complex on the cell surface.

[3] = test system: HBEGF locus; type: cell-based, human; conditions: abundance of KRAB domain before vs after selection; 2 ng/mL diphtheria toxin for 48 hours; spacer 34.28; HEK293T
[4] = Editing assays comparing gRNA scaffolds 316 and 174

B1: dCasX491: catalytically-dead CasX 491, SEQ ID NO: 18 (protein)
chain: QEIKRINKIRRRLVKDSNTKKAGKTGPMKTLLVRVMTPDLRERLENLRKKPENIPQPISNTSRANLNKLLTDYTEMKKAILHVYWEEFQKDPVGLMSRVAQPASKKIDQNKLKPEMDEKGNLTTAGFACSQCGQPLFVYKLEQVSEKGKAYTNYFGRCNVAEHEKLILLAQLKPEKDSDEAVTYSLGKFGQRALDFYSIHVTKESTHPVKPLAQIAGNRYASGPVGKALSDACMGTIASFLSKYQDIIIEHQKVVKGNQKRLESLRELAGKENLEYPSVTLPPQPHTKEGVDAYNEVIARVRMWVNLNLWQKLKLSRDDAKPLLRLKGFPSFPLVERQANEVDWWDMVCNVKKLINEKKEDGKVFWQNLAGYKRQEALRPYLSSEEDRKKGKKFARYQLGDLLLHLEKKHGEDWGKVYDEAWERIDKKVEGLSKHIKLEEERRSEDAQSKAALTDWLRAKASFVIEGLKEADKDEFCRCELKLQKWYGDLRGKPFAIEAENSILDISGFSKQYNCAFIWQKDGVKKLNLYLIINYFKGGKLRFKKIKPEAFEANRFYTVINKKSGEIVPMEVNFNFDDPNLIILPLAFGKRQGREFIWNDLLSLETGSLKLANGRVIEKTLYNRRTRQDEPALFVALTFERREVLDSSNIKPMNLIGVARGENIPAVIALTDPEGCPLSRFKDSLGNPTHILRIGESYKEKQRTIQAKKEVEQRRAGGYSRKYASKAKNLADDMVRNTARDLLYYAVTQDAMLIFANLSRGFGRQGKRTFMAERQYTRMEDWLTAKLAYEGLSKTYLSKTLAQYTSKTCSNCGFTITSADYDRVLEKLKKTATGWMTTINGKELKVEGQITYYNRYKRQNVVKDLSVELDRLSEESVNNDISSWTKGRSGEALSLLKKRFSHRPVQEKFVCLNCGFETHAAEQAALNIARSWLFLRSQEYKKYQTNKTTGNTDKRAFVETWQSFYRKKLKEVWKPAV
percent editing at the B2M locus measured as indel rate [1]: did not exhibit editing
% of cells negative for the B2M protein ([2]; B2M-targeting gRNA): ~10%

B2: dCasX527: dCasX variant, SEQ ID NO: 24 (protein)
chain: QEIKRINKIRRRLVKDSNTKKAGKTRGPMKTLLVRVMTPDLRERLENLRKKPENIPQPISNTSRANLNKLLTDYTEMKKAILHVYWEEFQKDPVGLMSRVAQPASKKIDQNKLKPEMDEKGNLTTAGFACSQCGQPLFVYKLEQVSEKGKAYTNYFGRCNVAEHEKLILLAQLKPEKDSDEAVTYSLGKFGQRALDFYSIHVTKESTHPVKPLAQIAGNRYASGPVGKALSDACMGTIASFLSKYQDIIIEHQKVVKGNQKRLESLRELAGKENLEYPSVTLPPQPHTKEGVDAYNEVIARVRMWVNLNLWQKLKLSRDDAKPLLRLKGFPSFPLVERQANEVDWWDMVCNVKKLINEKKEDGKVFWQNLAGYKRQEALRPYLSSEEDRKKGKKFARYQLGDLLLHLEKKHGEDWGKVYDEAWERIDKKVEGLSKHIKLEEERRSEDAQSKAALTDWLRAKASFVIEGLKEADKDEFCRCELKLQKWYGDLRGKPFAIEAENSILDISGFSKQYNCAFIWQKDGVKKLNLYLIINYFKGGKLRFKKIKPEAFEANRFYTVINKKSGEIVPMEVNFNFDDPNLIILPLAFGKRQGREFIWNDLLSLETGSLKLANGRVIEKTLYNRRTRQDEPALFVALTFERREVLDSSNIKPMNLIGVARGENIPAVIALTDPEGCPLSRFKDSLGNPTHILRIGESYKEKQRTIQAKKEVEQRRAGGYSRKYASKAKNLADDMVRNTARDLLYYAVTQDAMLIFANLSRGFGRQGKRTFMAERQYTRMEDWLTAKLAYEGLSKTYLSKTLAQYTSKTCSNCGFTITSADYDRVLEKLKKTATGWMTTINGKELKVEGQITYYNRYKRQNVVKDLSVELDRLSEESVNNDISSWTKGRSGEALSLLKKRFSHRPVQEKFVCLNCGFETHAAEQAALNIARSWLFLRSQEYKKYQTNKTTGNTDKRAFVETWQSFYRKKLKEVWKPAV
percent editing at the B2M locus measured as indel rate [1]: did not exhibit editing

B3: DOMAIN_26749: KRAB domain derived from the king cobra, Ophiophagus hannah; SEQ ID NO: 57755 (protein)
chain: STPVTFEDVVVYFTAAEWVHLTNWQRDFYQAVMMETYELVASVAGDGVPMAEDEEGGVERPVWQYIPRGKRRRKTPQPRAD
modifications: Ophiophagus hannah
log2(fold change) [3]: highest log2(fold change)

B4: 316 scaffold: chimeric gRNA scaffold, SEQ ID NO: 59352, 89 nucleotides (nucleic acid)
guide: ACUGGCGCUUCUAUCUGAUUACUCUGAGCGCCAUCACCAGCGACUAUGUCGUAGUGGGUAAAGCUCCCUCUUCGGAGGGAGCAUCAGAG
modifications: listed as RNA, further chemistry not given here
performance in editing assays relative to gRNA scaffold 174 [4]: perform comparably or more favorably than gRNA scaffold 174

B5: dXR4: dCasX491 fused to ZNF334 KRAB domain; protein SEQ ID NO: 59441 (protein)
chain: MAPKKKRKVSRGGSGGGSAQEIKRINKIRRRLVKDSNTKKAGKTGPMKTLLVRVMTPDLRERLENLRKKPENIPQPISNTSRANLNKLLTDYTEMKKAILHVYWEEFQKDPVGLMSRVAQPASKKIDQNKLKPEMDEKGNLTTAGFACSQCGQPLFVYKLEQVSEKGKAYTNYFGRCNVAEHEKLILLAQLKPEKDSDEAVTYSLGKFGQRALDFYSIHVTKESTHPVKPLAQIAGNRYASGPVGKALSDACMGTIASFLSKYQDIIIEHQKVVKGNQKRLESLRELAGKENLEYPSVTLPPQPHTKEGVDAYNEVIARVRMWVNLNLWQKLKLSRDDAKPLLRLKGFPSFPLVERQANEVDWWDMVCNVKKLINEKKEDGKVFWQNLAGYKRQEALRPYLSSEEDRKKGKKFARYQLGDLLLHLEKKHGEDWGKVYDEAWERIDKKVEGLSKHIKLEEERRSEDAQSKAALTDWLRAKASFVIEGLKEADKDEFCRCELKLQKWYGDLRGKPFAIEAENSILDISGFSKQYNCAFIWQKDGVKKLNLYLIINYFKGGKLRFKKIKPEAFEANRFYTVINKKSGEIVPMEVNFNFDDPNLIILPLAFGKRQGREFIWNDLLSLETGSLKLANGRVIEKTLYNRRTRQDEPALFVALTFERREVLDSSNIKPMNLIGVARGENIPAVIALTDPEGCPLSRFKDSLGNPTHILRIGESYKEKQRTIQAKKEVEQRRAGGYSRKYASKAKNLADDMVRNTARDLLYYAVTQDAMLIFANLSRGFGRQGKRTFMAERQYTRMEDWLTAKLAYEGLSKTYLSKTLAQYTSKTCSNCGFTITSADYDRVLEKLKKTATGWMTTINGKELKVEGQITYYNRYKRQNVVKDLSVELDRLSEESVNNDISSWTKGRSGEALSLLKKRFSHRPVQEKFVCLNCGFETHAAEQAALNIARSWLFLRSQEYKKYQTNKTTGNTDKRAFVETWQSFYRKKLKEVWKPAVRSGGSGGGSTSKMKKFQIPVSFQDLTVNFTQEEWQQLDPAQRLLYRDVMLENYSNLVSVGYHVSKPDVIFKLEQGEEPWIVEEFSNQNYPDTSPKKKRKV
% cells expressing B2M protein ([2]; spacer 0.0 (non-targeting)): 98.23%
% cells expressing B2M protein ([2]; spacer 7.37 (B2M-targeting, CasX)): 19.80%

B6: dCasX668: dCasX variant, SEQ ID NO: 59355 (protein)
chain: QEIKRINKIRRRLVKDSNTKKAGKTRGPMKTLLVRVMTPDLRERLENLRKKPENIPQPISNTSRANLNKLLTDYTEMKKAILHVYWEEFQKDPVGLMSRVAQPASKKIDQNKLKPEMDEKGNLTTAGFACSQCGQPLFVYKLEQVSEKGKAYTNYFGRCNVAEHEKLILLAQLKPEKDSDEAVTYSLGKFGQRALDFYSIHVTKESTHPVKPLAQIAGNRYASSPVGKALSDACMGTIASFLSKYQDIIIEHQKVVKGNQKRLESLRELAGKENLEYPSVTLPPQPHTKEGVDAYNEVIARVRMWVNLNLWQKLKLSRDDAKPLLRLKGFPSFPLVERQANEVDWWDMVCNVKKLINEKKEDGKVFWQNLAGYKRQEALRPYLSSEEDRKKGKKFARYQLGDLLLHLEKKHGEDWGKVYDEAWERIDKKVEGLSKHIKLEEERRSEDAQSKAALTDWLRAKASFVIEGLKEADKDEFCRCELKLQKWYGDLRGKPFAIEAENSILDISGFSKQYNCAFIWQKDGVKKLNLYLIINYFKGGKLRFKKIKPEAFEANRFYTVINKKSGEIVPMEVNFNFDDPNLIILPLAFGKRQGREFIWNDLLSLETGSLKLANGRVIEKTLYNRRTRQDEPALFVALTFERREVLDSSNIKPMNLIGVARGENIPAVIALTDPEGCPLSRFKDSLGNPTHILRIGESYKEKQRTIQAKKEVEQRRAGGYSRKYASKAKNLADDMVRNTARDLLYYAVTQDAMLIFANLSRGFGRQGKRTFMAERQYTRMEDWLTAKLAYEGLPSKTYLSKTLAQYTSKTCSNCGFTITSADYDRVLEKLKKTATGWMTTINGKELKVEGQITYYNRYKRQNVVKDLSVELDRLSEESVNNDISSWTKGRSGEALSLLKKRFSHRPVQEKFVCLNCGFETHAAEQAALNIARSWLFLRSQEYKKYQTNKTTGNTDKRAFVETWQSFYRKKLKEVWKPAV
percent editing at the B2M locus measured as indel rate [1]: did not exhibit editing

B7: dCasX676: dCasX variant, SEQ ID NO: 59357 (protein)
chain: B6 chain with L169K
percent editing at the B2M locus measured as indel rate [1]: did not exhibit editing
